Experimental findings from the Immune Epitope Database (IEDB) are described below.

The first assay addresses HLA-A*01:01. The assay is described as follows: IEDB peptide-MHC binding, purified MHC/competitive/radioactivity; ≥ and ≤ were set here for values at or beyond the usual limits of such assays. The following applies: source organism: Homo sapiens.
By IC50 is commonly meant the point on the concentration scale where inhibition reaches its midpoint. On to GSHLVEALY, for which the IC50 is 30300 nM.

The next assay deals with HLA-A*02:01. The assay is described as above. The following applies: source organism: Homo sapiens.
With ALARGAGTVPL, the IC50 stood at 29 nM.
As to ALGDLFQSI, the IC50 was determined as 76 nM.
Same read-out and setting: the value for ALTAVAEEV was 1310 nM.
Same read-out and setting: the value for ALWGPDPAAA was 1010 nM; that for AVAANIVLTV was 575 nM; that for ELAEYLYNI was 637 nM.
Turning to FIQVYEVERA, the IC50 was 7020 nM.
Same read-out and setting: then FLFAVGFYL, with 1.1 nM; and FLIVLSVAL, with 26 nM; and FLLSLFSLWL, with 16 nM.
Still for that read-out and setting: then FLQDVMNIL, with 70 nM; and FLWSVFMLI, with 26 nM; and FLWSVFWLI, with 55 nM.
Same read-out and setting: the value for FMTSSWWRAPL was 84 nM; that for GLLQVHHSCPL was 5.8 nM; that for GVFIQVYEV was 460 nM.
For the sequence HIAGSLAVV, the IC50 was found to be 216 nM.
HLASEKVYAI: the IC50 amounted to 4060 nM.
With HLCGSHLVEA, the IC50 is 7540 nM.
For the sequence HLSYHRLLPL, the IC50 was 4260 nM.
As for ILAVDGVLSV, the IC50 is 2.2 nM.
On the same count and under the same terms, the value for ILDKKVEKV was 11200 nM; that for ILKDFSILL was 39 nM; that for ILMHCQTTL was 478 nM.
As to ILVLASTITI, the concentration for half-maximal inhibition (IC50) came out at 675 nM.
Same read-out and setting: then IQATVMIIV, with 9040 nM; and KLANIQCLCL, with 97 nM.
Still for that read-out and setting: then KLQVFLIVL, with 1370 nM; and KMYAFTLES, with 880 nM.
On to KVLHELFGMDI, for which the IC50 is 11 nM.
Regarding LASEKVYAI, the IC50 turned out to be 6930 nM.
On the same count and under the same terms, then LIFDLGGGT, with 5420 nM; and LLDVAPLSL, with 51 nM.
Take LLGRFELIGI: the half-maximal inhibitory concentration (IC50) is 233 nM.
Regarding LLHVHHSCPL, the IC50 worked out at 7840 nM.
Consider LLIDLTSFL, for which the IC50 was 8.1 nM.
The same measure, in the same setting: the value for LLLLDVAPL was 10 nM; that for LLPPLLEHL was 444 nM.
Regarding LLQEYNWEL, the IC50 was 35 nM.
LLQVHHSCPL: the IC50 was 3090 nM.
The same measure, in the same setting: the value for LLSILCIWV was 734 nM; that for LLSLFSLWL was 152 nM.
Regarding LMFWSPSHSCA, the IC50 came to 143 nM.
Same read-out and setting: the value for LMGDKSENV was 7370 nM; that for LNIDLLWSV was 684 nM; that for LVEALYLVC was 11800 nM.
Consider MVWESGCTV, for which the IC50 worked out at 126 nM.
The same measure, in the same setting: then NLAQDLATV, with 67 nM; and NLLGRFELI, with 764 nM.
As for NLLGRFELIGI, the IC50 was determined as 1.8 nM.
In the case of RLGPVARTRV, the IC50 stood at 581 nM.
With RLLPLWAALPL, the half-inhibitory concentration (IC50) came out at 5.4 nM.
With RLLYPDYQI, the IC50 came to 124 nM.
For RLQREWHTL, the 50% inhibitory concentration (IC50) is 1230 nM.
For the sequence RLRPLCCTA, the IC50 was 8230 nM.
On the same count and under the same terms, the value for RMMEYGTTMV was 709 nM; that for SHLVEALYLV was 2150 nM.
Turning to SISVLISAL, the half-maximal inhibitory concentration (IC50) worked out at 1560 nM.
Still for that read-out and setting: the value for SLASLLPHV was 9.1 nM; that for SLEEEIRFL was 472 nM; that for SLFEGVDFYT was 51 nM.
On the same count and under the same terms, then SLSPLQAEL, with 101 nM; and SLTAISTTL, with 242 nM; and SLTTISTTL, with 237 nM.
Same read-out and setting: then SLYHVYEVNL, with 209 nM.
Take SMCRFSPLTL: the IC50 was 1150 nM.
With SMPQGTFPV, the IC50 is 631 nM.
For the sequence STVASRLGPV, the IC50 is 25100 nM.
With STVASWLGPV, the IC50 was found to be 9230 nM.
Same read-out and setting: the value for SVASLLPHV was 1760 nM.
TIADFWQMV: the IC50 was found to be 4690 nM.
On the same count and under the same terms, then TLSSRVCCRT, with 2780 nM; and TMHSLTIQM, with 104 nM; and TVASRLGPV, with 7700 nM.
On the same count and under the same terms, then VAANIVLTV, with 320 nM; and VIVMLTPLV, with 2120 nM; and VLHELFGMDI, with 287 nM.
Still for that read-out and setting: then VLNSVASLL, with 1140 nM; and VLVEGSTRI, with 17200 nM.
As to VMNILLQYV, the 50% inhibitory concentration (IC50) is 2020 nM.
On the same count and under the same terms, the value for VMNILLQYVV was 2310 nM; that for VVTGVLVYL was 9 nM.
For WLLPLWAAL, the IC50 came out at 4.2 nM.
The same measure, in the same setting: the value for WLLPLWAALPL was 3.2 nM; that for YIPSCTVVGM was 9510 nM; that for YLLLRVLNI was 57 nM.

The target in a further assay is HLA-A*03:01. The description is as above. The following applies: source organism: Homo sapiens.
Turning to ALYLVCGER, the IC50 is 2790 nM.
Consider LVCGERGFFY, for which the IC50 was found to be 27400 nM.

The target of the next assay is HLA-A*11:01. Described as above. The following applies: source organism: Homo sapiens.
Regarding ALYLVCGER, the IC50 stood at 28300 nM.
The same measure, in the same setting: the value for LVCGERGFFY was 27200 nM; that for RFKMFPEVK was 18300 nM.

The next assay deals with HLA-A*24:02. Described as above. The following applies: source organism: Homo sapiens.
Consider ALWGPDPAAAF, for which the IC50 was 15100 nM.
On the same count and under the same terms, then ALWMRLLPLL, with 6180 nM.
Regarding LWMRLLPLL, the IC50 was found to be 545 nM.
For LYLVCGERGF, the IC50 worked out at 5260 nM.
Consider RLLPLLALL, for which the IC50 was determined as 10200 nM.

The next assay addresses HLA-B*07:02. The assay is described as above. The following applies: source organism: Homo sapiens.
Take APVIKARMM: the half-maximal inhibitory concentration (IC50) amounted to 18300 nM.
Regarding HPRYFNQLST, the IC50 was found to be 1250 nM.
On to IPSDLERRIL, for which the IC50 is 3860 nM.
On the same count and under the same terms, then LPLLALLAL, with 610 nM; and WMRLLPLLAL, with 2360 nM.

Another assay addresses HLA-B*08:01. The description is as above. The following applies: source organism: Homo sapiens.
On to ALWMRLLPL, for which the IC50 was determined as 107 nM.
Same read-out and setting: then ALWMRLLPLL, with 33 nM; and FYTPKTRRE, with 13000 nM.
The same measure, in the same setting: the value for GERGFFYT was 1380 nM.

Another assay addresses HLA-B*18:01. Described as above. The following applies: source organism: Homo sapiens.
As to VCGERGFFYT, the IC50 amounted to 626 nM.

The target of the next assay is HLA-B*35:01. The description is as above. The following applies: source organism: Homo sapiens.
For the sequence LPLLALLAL, the IC50 was found to be 12300 nM.

Another assay deals with HLA-B*51:01. Described as above. The following applies: source organism: Homo sapiens.
With LPLLALLAL, the IC50 amounted to 1160 nM.
